Experimental data: the nanobody polyreactivity screen of Harvey et al. (2022)

test: yeast display, Sf9 membrane polyspecificity reagent, FACS + sequencing; frameworks hold sequencing errors
Outline: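 Synthetic nanobody libraries on Saccharomyces cerevisiae BJ5465 were galactose-induced for 36–48 hours, stained 1 hour at 4 °C with 10% biotinylated, detergent-solubilized Sf9 membrane reagent and enriched on streptavidin microbeads. FACS then separated cells into low and high (top ~1%) gates by anti-HA (expression) and streptavidin (reagent binding) fluorescence. Genes were colony-PCR amplified, MiSeq 2 × 250 sequenced and CDR-length filtered. A clone's polyreactivity label is that of its gate of origin.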

Sequence	polyreactivity (PSR sort gate)
QVQLVESGGGLVQAGGSLRLSCAASGRIFTYNAMGWYRQAPGKEWELVAVISRRGGSTYYADSVKGRFTISRDNAKNSVYLQMNSLKPEDTAVYYCAADLPSYAYEFWGQGTQVTVSS	low polyreactivity
QVQLVESGGGLVQAGGSLRLSCAASGRIFTYYAKGWYRQAPGKERELVAAISWSGGSTYYADSVKARITISRDNAKKTVYLVMNSLNPEDTAVYYCNAVYPSVYPVSTRYYWGQGTQVTVSS	high polyreactivity
QVQLVESGGGLVQAGGSLRLSCAASGRIFTYYAMGWYRQAPGKERELVAAISYSGSSTYYADSVKGRFTISRDNAKNTVYLQMNSLKPEDTAVYYCAAAPSGHYLAYGYWGQGTQVTVSS	high polyreactivity
QVQLVESGGGLVQAGGSLRLSCAASGRIFTYYAMGWYRQAPGKERELVAAITGSGTSTYYADSVKGRFTISRDNAKNTVYLQMNSLKPEDTAVYYCAARNSYSRYYYWGQGTQVTVSS	high polyreactivity
QVQLVESGGGLVQAGGSLRLSCAASGRIFTYYAMGWYRQAPGKERELVASISKSSGSTYYADSVKGRFTISRDNAKNTVYLQMNSLKPEDTAVYYCATDPYVRRSPSWYDYWGQGTQVTVSS	low polyreactivity
QVQLVESGGGLVQAGGSLRLSCAASGRIFVDNAMGWYRQAPGKERELVAAITGGGSTYADSVKGRFTISRDNAKNTVYLQMNSLKPEDTAVYYCAADLWSVPFTVYTFGIFYYWGQGTQVTVSS	low polyreactivity
QVQLVESGGGLVQAGGSLRLSCAASGRIFVDNAMGWYRQAPGKESELVADITSGGSTYYADSVKGRFTISRDNAKNTVYLQMNSLKPEDTAVYYCAADYRVSSDYRYDYWGQGTQVTVSS	low polyreactivity
QVQLVESGGGLVQAGGSLRLSCAASGRIFVDNTMGWYRQAPGKERELVAAISRRGTSTYYADSVKGRFTISRDTAKNTVFLQMNSLNPEDTAVYYCAADYYYYDSQQGMDYWGQGTQVTVSS	high polyreactivity
QVQLVESGGGLVQAGGSLRLSCAASGRIFVDYDMGWYRPAPGKERELVATISSGGSTNYADSVKGRFTISRDNAKNTVYLQMNSLKPEDTAVYYCAASSYSTSYIRGDYWGQGTQVTVSS	low polyreactivity
QVQLVESGGGLVQAGGSLRLSCAASGRIFVFNAMGWYRQAPGKERELVASISSSGGSTYYADSVKGRFTISRDNAKNTVYLQINSLKPEDTAVYYCARRSYHSRYNYWGQGTQVTVSS	high polyreactivity
QVQLVESGGGLVQAGGSLRLSCAASGRIFVFYAMGWYRQAPGKERELVAAITASSTRTYYADSVKGRFTISRDHAKNTVYLQLNSLKPEDTAVYYCARDIRQYILYGRGDYWGQGTQVTVSS	low polyreactivity
QVQLVESGGGLVQAGGSLRLSCAASGRIFVFYAMGWYRQAPGKERELVASITLTDGSTYYADSEKGRFTISRDNAKNTVYLQMNSLKPEDTAVYYCAARISGGSTFRYQRMYYWGQGTQVTVSS	low polyreactivity
QVQLVESGGGLVQAGGSLRLSCAASGRIFVGNAMGRYRQAPGKERELVAAISRSGGRTYYADSVKGRFTISRDNAKNTVYLQMNSLKPEDTAVYYCNTRVYAGKYDYWGQGTQVTVSS	high polyreactivity
QVQLVESGGGLVQAGGSLRLSCAASGRIFVGNTMGWYRQAPGKERELVAAISWRGRTSYADSVKGRFTISRDNAKNTVYLQMNSLKPEDTAVYYCNAEHAGATRYYYIANWMDYWGQGTQVTVSS	low polyreactivity
QVQLVESGGGLVQAGGSLRLSCAASGRIFVGYAMGWYRQAPGKEREFVAAITIGGTDTYYADSVKGRFTISRDNAKNTVYLQMNSLKPEDTAVYYCNADLLYPYDFDYWGQGTQVTVSS	low polyreactivity
QVQLVESGGGLVQAGGSLRLSCAASGRIFVGYAMGWYRQAPGKERELVAAINRSGSSTYYADSVKGRFTISRDNAKNTVYLQMNSLKPEDTAVYYCNARSGNRYGPRYDYWGQGTQVTVSS	high polyreactivity
QVQLVESGGGLVQAGGSLRLSCAASGRIFVGYAMGWYRQAPGKERELVAAISSDGGSTYYADSVKGRFTISRDNAKNTVYLQMNSLKPEDSAVYYCNAYYGRFPYYADDYWGQGTQVTVSS	low polyreactivity
QVQLVESGGGLVQAGGSLRLSCAASGRIFVGYAMGWYRQAPGKERELVAAITGSGGGTYYADSVKGRFTISRDNAKNTVYLQMNSLKPEDTAVYYCAATGYLKVRGYYAWHFYYWGQGTQVTVSS	high polyreactivity
QVQLVESGGGLVQAGGSLRLSCAASGRIFVGYAMGWYRQAPGKERELVAAITKSGGRTYYADSVKGRFTISRDNAKNTVYLQMNSLKPEDTAVYFCAKYLGRQHEKDLGGMNYWGQGTQLTVSS	high polyreactivity
QVQLVESGGGLVQAGGSLRLSCAASGRIFVGYAMGWYRQAPGKERELVAAITKSGGRTYYADSVKGRFTISRDNAKNTVYLQMNSLKPEDTAVYYCAVLNSKWNEYDYWGQGNQVTVSS	high polyreactivity
QVQLVESGGGLVQAGGSLRLSCAASGRIFVGYGMGWYRQAPGKERELVASIDTGGSTYYADSVKGRFTISRDNAKNTVYLQMNSLKPDDTAVYYCAADYQSYTSLTGYHNSEGDPWGQGTQVTVSS	low polyreactivity

Sequence	polyreactivity (PSR sort gate)
QVQLVESGGGLVQAGGSLRLSCAASGRIFVHNAMGWSRQAPGKERELVAAISSGGSTYYADSVKGRFTISRDNAKNTVYLQMNSLKPEDTAVYYCAIYAYYNKYDYWGQGTQVTVSS	high polyreactivity
QVQLVESGGGLVQAGGSLRLSCAASGRIFVHYAMGWYRQAPGKERELVAAITSGSSTNYADSVKGRFTISRDNAKNTVYLQMNSLKPEDTAVYYCAADYSVHMVRDRWFDYWGQGTQVTVSS	low polyreactivity
QVQLVESGGGLVQAGGSLRLSCAASGRIFVIYAMGWNRQAPGKERELVASITDGTITNYADSVKGRFTISRDNAKNTVYLQMNSLKPEDTAVYYCAAGTQAHAYVVRPIEMDYWGQGTQVTVSS	low polyreactivity
QVQLVESGGGLVQAGGSLRLSCAASGRIFVIYGMGWYRQAPGKERELVAAIRWTGGSTYFADSVKGRFTISRDNAKNTVYLQMNSLKPEDTAVYYCNAGSDRAIWPTHDYWGQGTQVTVSS	low polyreactivity
QVQLVESGGGLVQAGGSLRLSCAASGRIFVIYGMGWYRQAPGKERELVATISWSGSSTSYADSVKGRFTISRDNAKNTVYLQMNSLKPEDTAVYYCAAYTWYSRHRMNYWGQGTQVTVSS	high polyreactivity
QVQLVESGGGLVQAGGSLRLSCAASGRIFVKNAMGWYRQAPGKERELVATISSGGNTNYADSVKGRFTISRDNAKNTVYLQMNSLKPEDTAVYYCAAVWDLGDYELPYDYWGQGTQVTVSS	low polyreactivity
QVQLVESGGGLVQAGGSLRLSCAASGRIFVKYAMGWYRQAPGKERELVAAITNSGGRTYYAASVKGRFTISRDNAKNTVYLQMNSLKPEDTAVYYCAALYHASTRQMDYWGQGTQVTVSS	high polyreactivity
QVQLVESGGGLVQAGGSLRLSCAASGRIFVKYAMGWYRQEPGKERELVAAIRWSVGSTYYADSVKGRFTISRDNAKNTVYLLMNSLKPEDTAVYYCAAQPVRKLYWGQGTQVTVSS	high polyreactivity
QVQLVESGGGLVQAGGSLRLSCAASGRIFVKYVMGWYRQAPGKERELVAAISSSGGRTYYADSVKGRFTISRDNAKNTVYLPMNSLKPEDTAVYYCNAVRRRSSLKLDSWGQGTQVTVSS	high polyreactivity
QVQLVESGGGLVQAGGSLRLSCAASGRIFVLYDMGWYRQAPGKERELVAGISGSGGRTYYADSVKGRFTISRDNAKNTVYLQMNSLKPEDTAVYYCNARGYYWYRPYVNSNGGYWGQGTQVTVSS	high polyreactivity
QVQLVESGGGLVQAGGSLRLSCAASGRIFVNNAMGWYRQAPGKERELVAAISKRGGSTYYADSVKGRFTISRDNAKNSVYLQMNSLKPEDTAVYYSAATPVYSGPYDYWGQGTQVTVSS	high polyreactivity
QVQLVESGGGLVQAGGSLRLSCAASGRIFVNYAMGWYRQAPVKERELVATITWSGGSTFYADSVKGRFTISRDNAKNTVYLQMNSLKPEDTAVYYCAQRGYVRSGLGRPYADDYWGQGTQLTVSS	low polyreactivity
QVQLVESGGGLVQAGGSLRLSCAASGRIFVPNAMGWYRQAPGKERELVAAITSSGSSTYYADSVKGRFTISRDNAKNTVYLQMNSLKPEDTAVYYCNTLWGGFSWFRVDSWGQGTQVTVSS	high polyreactivity
QVQLVESGGGLVQAGGSLRLSCAASGRIFVPYAMGWYRPAPGKERELVAAITWRGGRTYYADSVKGRFTISRDNAKNTVYLQMNSLKPEDTAVYYWAARGWTVTERYYWGQGTQVTVSS	high polyreactivity
QVQLVESGGGLVQAGGSLRLSCAASGRIFVPYAMGWYRQAPGKERELVAAISWRGGSTNYADSVKGRFTISRDNAKNTVYLQMNSLKPEDTAVYYCAAVPVRYRYSYGYYYWGQGTQVTVSS	high polyreactivity
QVQLVESGGGLVQAGGSLRLSCAASGRIFVPYVMGWYRQAPGKERELVASISDSDTSTYYADSVKGRFTISRDNAKNTVDLQMNSLKPEDTAVYYCNVDYWGQGTQVTVSS	low polyreactivity
QVQLVESGGGLVQAGGSLRLSCAASGRIFVPYVMGWYRQAPGKERELVASISDSDTSTYYADSVKGRFTISRDNAKNTVYIQMNSLKPEDSAVYYCNVDYWGQGTQVTVSS	low polyreactivity
QVQLVESGGGLVQAGGSLRLSCAASGRIFVQYAMGWYRQAPGKERELVAAISYSGGRTYYADSVKGRFTISRDNAKNTVYLQMNSLKPEDTAVYYCAAVRAGYYGYWGKGTQVTVSS	high polyreactivity
QVQLVESGGGLVQAGGSLRLSCAASGRIFVQYDMGWYRQAHGKERELVAAITGGGGSTYYADSVKGRFTISRDNAKNTVYLQMNSLKPEDTAVYYCAADQDVYDFTGYDYWGQGTQVTVSS	low polyreactivity
QVQLVESGGGLVQAGGSLRLSCAASGRIFVQYDMGWYRQAPGKERELVAAITGGGGSTYYADSVKGRFTISRDNAKNTVYLQMHSLKPEDTAVYYCAADQDVYDFTGYDYWGQGTQVTVSS	low polyreactivity
